Results published in the nanobody polyreactivity screen of Harvey et al. (2022).

Test: yeast display, Sf9 membrane polyspecificity reagent, FACS + sequencing; frameworks hold sequencing errors
Method in brief: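 Polyreactivity labels are assigned by the sorting gate from which each nanobody was recovered. The gates were low and high (top ~1%), set on anti-HA fluorescence for expression and streptavidin fluorescence for reagent binding. Before sorting, galactose-induced (36–48 hours) yeast display cells were stained for 1 hour at 4 °C with 10% biotinylated, detergent-solubilized Sf9 membrane reagent.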

Sequence	polyreactivity (PSR sort gate)
QVQLVESGGGLDQAGGSLRLSCAASGRIFGYYAMGWYRQAPGKERELVAAISRSGGSTNYADSVKGRFTISRDTAKNTVYLQMNSLKPEDTAVYYCAVRYPYYSPFGGYDYWGQGTQVTVSS	high polyreactivity
QVQLVESGGGLVQAGGSLRISCAASGITFAWYAMGWYRQAPGKERELVATISAGGAITYYADSVKGRFTISRDNAKNTVYLQMNSLKPEDTAVYYCNAVTYGPYGWGQGTQVTVSS	high polyreactivity
QVHLVESGGGLVQAGGSLRLSCAASGSTFLANTMGWYRQAPGKERELVAAITRRGGSTRYADSVKGRFTISRDNAKNTVFLEMNSLKPEDTAVYYCAAPWFRDTRGYSLYDYWGQGTQVTVSS	high polyreactivity
QVQLVESWGGLVQAGGSLRLSCAASGRIFKRNTMGWNRQAPGKQRELVAAITGSSGSTYYADSVKGRFTNSRDNAKNTVYLQMNSLKPEDTAVYYCNTVRSVYQYWPYNYWGQGTQVTVSS	high polyreactivity
QVQLVESGGGLVQAGGSLRLSCAASGRTFPTYTMGWYRQAPGQERELVAAITRGGSTKYADSVKGRFTISRDNAKNTVYLQMNSLKPEDTAVYYCAAVYRYRHSFAYYRHEMDYWGQGTQVTVSS	low polyreactivity
QVQLVESGGGLVQAGGSLRLSCAASGSTYRYNAMGWYRQAPGKERELVAAITSGGRTNYADSVKGRFTISRDNAKITVYLQMNSLKPEDTAVYYCAARRYGRNWHYDYWGQGTQVTVSS	high polyreactivity
QVQLVESGGGLVQAGGSLRLSCAASGSTYRANAMGWYRQAPVKERELFASITNSGSSTYYADSVKGRFTISRDNAKNTVYLQMNSLKPEDTAVYYCNAERTIAGYYYWGQGTQVTVSS	low polyreactivity
QVQLVESGGGLVQAGGSLRLSCAASGIIIQYYAMGWYRQAPGKERELVATITLRGGITYYADSVKGRFTISRDNAKNTVYLQMNCLKPEDTAVYYCNTDQGTTSDYGYWGQGTQVTVSS	low polyreactivity
QVQLVESGGGLVQAGGSLRLSCAASGRTFSIYAMGWYRQAPGKERELVASITNSDGSTYYADSVKGRFTISRDNAKNTVYLQMNSLKPEDTAVYYCNVDSGQSWSLWTYVQYDDYWGQGTQVTVSS	low polyreactivity
QVQLVESGGGLVQAGGSLRLSCAASGSTFVGYAMGWYRQAPGKERELVAAITSRGGRTYYADSVKGRFTISRDNAKNTVYLQMNSLKPEDTAVYYCNAKRPRIGVTRYDYWGQGTQVTVSS	high polyreactivity
QVQLVESGGGLVQAGGSLRLSCAASGRILRYNAMGWYRQAPGKERELVASISGNGGSTYYADSVKGRFTISRDNAKNTVYLQMKSLKPEDTAVYYCNKYYYSSRGQKEYDYWGQGTQVTVSS	low polyreactivity
QVQLVESGGGLVQAGGSLRLSCAASGSTFRRYAMGWYRQAPGKERELGAAISRSGGTTYYADSVKGRFTISRDNAKNTVYLQMNSLKPEDTAVYYCNARYPVVRYDYWGQGTQVTVSS	high polyreactivity
QVQLVESGGGLVQGGGSLRLSCAASGRIFDRYAMGWYRQAPGKERELVAAISSSGGSTYYADSVKGRFTISRDNAKNTVYLQMNSLKPEDTPVYYCNADYYVSKLDYWGQGTQVTVSS	high polyreactivity
QVQLVESGGGLVQAGGSLRLSCAASGITFRYYAMGWYRQAPGKERELVAAISYSGGSTYYADSVKGRFTISRDNAKNTVYLQMNRLKPEDTAVYYCNRVWTRLVTYPEYDYWGQGTQVTVSS	high polyreactivity
QVQLVESGGGLVQAGGSLRLSCAASGFTFAWYTMGWYRQEPGKESELVAAISWSGGSTYYADSVKGRFTISPDNANKTVYLQMNILKPEDTAVYYCAVTTGLTRYEYWGQGTQVTVSS	high polyreactivity
QVQLVESGGGLVQAGGSLRLSCAASGSTFDYNTMGWYRQAPGKERELVAAINNSGGSTYYADSVKGRFTISRDNAKNTVYLQMNSLKPEDTAVYYCAAVSYRRHFGPYNYWGQGTQVTVSS	low polyreactivity
QVQLVESGGGLVQAGGSLRLSCAASGSTFPAYAMGWYRQAPGKERELVAAITRGGSTNYADSEKGRFTISRDNAKNTVYLQMNSLKPEDTAVYYCAADKRYWWRYNYWASRSRGESWGQGTQVTVSS	high polyreactivity
QVQLVESGGGLVQAGGSLRLSCAASGSTFADNAMGWYSQARGKAGEFVAGISTNGGSTYYADSVKGRFTISRDNAKNTVYLQMNSLKPEDTAVYYCSAVNYYDQYGDYYWGQGTQVTVSS	low polyreactivity
QVQLVESGGGLVQAGGSLRLSCAASGSIVVRNAMGWYRQAPGKERELVAAITYRGGSTYYADSVKGRFTISRDNAKNTVYLQMNSLNPEDTAVYYCFDVNTDVLSRVYRGWGYYYWGQGTQVTVSS	low polyreactivity
QVQLVESGGGLVQAGGSLRLSCAASGRTFGRYAMGWYRQAPGKERELLARISYSGGSTYYADSVKGRFTISRDNAKNTDYLQMNSLKPEDTAVYYCAASFFGRFDPDRSYWGQGTQVTVSS	high polyreactivity
QVQLVESGGGLVQAGGSLRLSCAASGRTFSGYAMGWYRQAPGKERELVAAISSGGGSTYYADSVKGRFTISRDIAKNTVYLQMNSLKPEDTAVYYCAADGYPGDYDYWGQGTQVTVSS	low polyreactivity
QVQLVESGGGLVQAGGSLRLSCAASGSTFYRYAKVSYRQAPGKARELVAAITRTGGSTYADSVKGRFTISRDNAKYTDYLQMKSLKPEDTAVYYCAVQRYYVSSISPFYYWGQGTQVTVSS	low polyreactivity

Sequence	polyreactivity (PSR sort gate)
QVQLVESGGGLVQAGGSLRLSCAASGSIFRRYDMGWYRQAPGKERELVAAISSSGGSTYYADSVKGRFTISRDNAKNTVYLQMNSLKPEDTAVYYCAADIYDDDRSEYTEYDYWGQGTQVTVSS	low polyreactivity
QVQLVESGGGLVQAGGSLRLSCAASGSTFTWYGMGWYRQAPGKETELVAAISGSGGRTYYADSVKGRFTISRDNAKNTVYFQMNSLKPEDTAVYYCNADPANPFGTEFEYWGQGTQVTVSS	high polyreactivity
QVQLVETGGGLVHAGGSLRISCAASGLTFRGNAMGWYRQAPGKERELVATISSGGITNYADSVKGRFTISRDNAKNTVYLQMNSLKPEDTAVYYCAADWFVHKPRYQNSFDYWGQGTQVTVSS	low polyreactivity
QDQLVESGGGLVQAGGSLRLSCAASGRIFGPYTMGWYRQAPGKEREFVAAISRSGDSTYYADSVKGRFTISRDNAKNTVYLQMNSLKPEDSAVYYCAAKYGTRLSAYYYWGQGTLVTVSS	high polyreactivity
QVQLVESGGGLVQAGGSLRLSCAASGSTLPANAMGWYRQAPGKERELVAAITITTDGSTYYADSVKGRFTISRDNAKNTVYLQLNSLKPEDTAVYYCAVARYRYHIRKMGYWGQGTQVTVSS	low polyreactivity
QVQLVESGGGLVQAGGSLRLSCAASGRIFRYYAMGWYRPAPGKERELVAAITWRGDSTYYADSVKGRFTISRDNAKNTVYLQMNSLKPEDTAVYYCNKRWTDKYDSWGQGTQVTVSS	high polyreactivity
QVQLVESGGGLVQAGGSLRLSCAASGFTFNWYAMAWYRQAPGKERELVATINSGGSTYYADSVKGRFTISRDNAKNTVYLQMISLKPEDTAVYYCNRTHRRRYVKSAYIYWGQGTQVTVSS	low polyreactivity
QVQLVESGGGLVQAGGSLRLICAASGRTFSVNDMGWYRQAPGKERELVAAISFSGGSTYYADSVKGRFTISRDNAKNTVYLQMNSLKPEDTAVYYCAAEAYPSWFYVITGFGIYDYWGQGTQVTVSS	high polyreactivity
QVQLVESGGGLVQAGGSLRISCAASGFTFSYNTMGWYRQAPGKERELVAAITGDVSTNYADSVKGRFTISRDNAKNTVYLQMNSLKPEDTAVYYCAARPNFPGYEDLSVDFEYWGQGTQGTVSS	low polyreactivity
QVQLVESGGGLVQAGGSLRLSCSASGRTFEHNCMGWSRQAHGKERELVASITSVGSTDYADSVKGRFTISRDNAKNTVYLQMNSLKPEDTAVYYCAKTLGSQNYDFDYWGQGTQVTVSS	low polyreactivity
QVQLVESGGGLVQAGGTLRLSCAASGRTFNGNAMGWYRQAPGKERELVAAISGGSTSYADSVKGRFTISRDNAKNTVYLQMNSLKPEDTAVYYCAATYIRRTIFRYNSWGQGTQVTVSS	low polyreactivity
QVQLQESGGGLVQAGGSLRLSCAASGSIYDDTYMGWYRQAPGKERELVATIDSGSTTNYADSVKGRITISRDNAKNTVYLQMNSLKPEDTGVYYCAAADSHIDYFDYWGQGTQVTVSS	low polyreactivity
QVQLVESGGGLVQAGGSLRLSCAASGRIFSGYAMGWDRQAPGKERELVAAISSTGGTYYADSVKGRFTISRDNAKNTVYLQMNSLKPEDTAVYYCAADTYGYQGSAGGHWGQGTQVTVSS	low polyreactivity
QVQLVESGGGLVQAGGSLRLSCASSGITFDKYAMGWYRQAPGKERELVAAISGSDGSTYYADSVKGRFTISRDNAKNTVYLQNNSLKPEDTAVYYCAAESEYAGTYEYDYWGQGNQVTVSS	low polyreactivity
QVQLVESGGGLVQAGGSLRLSCAATGSIFSFYAMGWYRQAPGKERELVAGIRWRGGTSTFYADSVKGRFTISRDKAKNTVYLHMNSLKPEDTAVYYCAAKRRTGGNGYWGQGTQVTVSS	high polyreactivity
QVQLVESGGGLVQAGGSLRLSCAASGSTFGSYVMGWYRQAPGKERELVAAISGSGGSTYYADSVKGRFTISRDNAKNTVYLQMTSLKPEDTAVYYCAAYVFFPWYGYWGQGTQVTVSS	high polyreactivity
QVQLVESGGGLVQAGGSLRLSCAASGRTFSSYTMGWYIQAPGKEMELVAAISWRGGSTYYADSVKGRFTISSDNAKNTVYLQMNSLKPEDTAVYYCAARSYLTPDYYYWGQGTQVNVSS	high polyreactivity
QVQLVESGGGLVQAGGSLRLSCAASGYIFYNAMGWYRQAPGKERELVAAISSSGGTTYYADSVKGRFTISRDNAKNTVFLQMNSLKPEDTAVYYCAATFRKRYPSRYDSWGQGTQVTVSS	low polyreactivity
QVQLVESGGGLVQAGGSLRLSCAASGSIFRIYAMGWYRQAPGKERELVAAISRGSTRTYYADSVKGRFTISRDNAKNTVYLQMNSLKPEDTAVYYCNKAYPPEYDYWGQGTQVTVSS	high polyreactivity
QVQLVESGGGLVQAGGSLRLSCAASGSIFLDNAMGWYRQAPGKEREFVATISWRTGRTYYADSVKGRFTISRDNAKNTVYLHMNSLKPEDTAVYYCAVDTVRNHRMDYWGQGTQVTVSS	low polyreactivity
QVQLVESGGGLVQAGGSLRLSCAASGSIFWVNAMGWYRQAPGKERELVAAITWSAGSTYYADSVKGRFTISRDNANNTVYLQMNSLKPEDTAVYYFAAGVAWYYWTLDYWGQGTQVTVSS	low polyreactivity
